{"source": "paper PMC12463132", "about": "(Advanced Science, 2025)", "target": "T1, Sec23a/Sec24a (lacking residues 1–340) (human, UniProt Q15436 1-765; O95486 341-1093)", "T1 construct": "Sec23a, human, full length (pFastBac1 vector); Sec24a, human, lacking residues 1-340; The results call the protein of the pull-downs 'Sec24a' or 'Sec24', the methods 'COPII protein'; also called COPII coat proteins Sec23a/Sec24a; COPII protein; source: Hi5 insect cells (baculovirus made in Sf9), purified (HisTrap, ion exchange, SEC)", "T1 sequence (Q15436 whole entry, chain 1 of 2, the tested form may be a part)": "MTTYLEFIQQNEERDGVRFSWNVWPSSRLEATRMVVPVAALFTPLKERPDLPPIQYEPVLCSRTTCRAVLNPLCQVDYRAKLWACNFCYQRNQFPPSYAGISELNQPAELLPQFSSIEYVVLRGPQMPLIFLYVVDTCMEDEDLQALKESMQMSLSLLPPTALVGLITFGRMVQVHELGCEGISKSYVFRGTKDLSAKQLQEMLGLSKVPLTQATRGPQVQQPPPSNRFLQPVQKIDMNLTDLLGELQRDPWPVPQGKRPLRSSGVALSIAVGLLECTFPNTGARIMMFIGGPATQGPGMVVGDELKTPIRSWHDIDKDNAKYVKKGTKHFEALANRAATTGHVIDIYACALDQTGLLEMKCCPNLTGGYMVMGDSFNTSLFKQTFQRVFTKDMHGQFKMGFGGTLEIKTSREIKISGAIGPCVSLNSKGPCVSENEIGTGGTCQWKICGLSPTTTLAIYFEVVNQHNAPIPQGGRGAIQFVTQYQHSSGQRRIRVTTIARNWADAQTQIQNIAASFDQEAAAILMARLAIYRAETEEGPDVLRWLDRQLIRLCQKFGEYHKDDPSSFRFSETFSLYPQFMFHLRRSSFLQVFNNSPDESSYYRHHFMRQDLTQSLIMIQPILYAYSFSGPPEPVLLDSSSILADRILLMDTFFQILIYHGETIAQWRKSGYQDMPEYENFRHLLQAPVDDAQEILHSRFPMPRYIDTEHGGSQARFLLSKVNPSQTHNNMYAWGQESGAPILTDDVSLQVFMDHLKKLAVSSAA", "T1 sequence (O95486 341-1093, chain 2 of 2)": "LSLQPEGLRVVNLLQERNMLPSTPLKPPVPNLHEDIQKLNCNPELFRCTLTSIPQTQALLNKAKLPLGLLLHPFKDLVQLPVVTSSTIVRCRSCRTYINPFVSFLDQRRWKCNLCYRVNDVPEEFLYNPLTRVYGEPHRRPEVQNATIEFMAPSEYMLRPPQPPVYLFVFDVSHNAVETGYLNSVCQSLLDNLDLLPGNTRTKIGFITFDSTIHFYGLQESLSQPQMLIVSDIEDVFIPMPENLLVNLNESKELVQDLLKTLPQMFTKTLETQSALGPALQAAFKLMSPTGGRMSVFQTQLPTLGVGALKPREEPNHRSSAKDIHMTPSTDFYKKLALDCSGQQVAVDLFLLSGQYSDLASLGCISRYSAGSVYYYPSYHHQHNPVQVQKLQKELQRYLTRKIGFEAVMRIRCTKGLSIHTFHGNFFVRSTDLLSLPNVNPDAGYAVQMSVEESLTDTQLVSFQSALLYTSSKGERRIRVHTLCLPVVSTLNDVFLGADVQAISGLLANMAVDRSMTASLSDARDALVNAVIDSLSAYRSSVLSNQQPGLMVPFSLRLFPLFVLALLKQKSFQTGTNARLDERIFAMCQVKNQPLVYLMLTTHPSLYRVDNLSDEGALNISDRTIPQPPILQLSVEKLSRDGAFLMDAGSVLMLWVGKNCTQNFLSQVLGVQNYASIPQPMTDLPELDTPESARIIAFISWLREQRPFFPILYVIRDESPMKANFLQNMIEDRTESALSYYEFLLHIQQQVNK", "experiment": "pull-down; competition: phosphorylated GST-STING CTT on glutathione Sepharose 4B beads, IRF3 with Sec24; 20 mM HEPES-Na pH 7.4, 200 mM NaCl, 4 mM DTT, 0.1% Triton X-100, 4 °C; SDS-PAGE", "details": "both partners purified", "note": "Ends that are not written are not given here."}
{"binder": "QEEKEEVTVGSLKTSAVPSTSTMSQEPELLISGMEKPLPLRTDFS (domain or fragment, UniProt Q86WV6 335-379, looked up, also: GST-tagged, phosphorylated by TBK1, sites not given here, STING, human, C-terminal tail, residues 335-379; also called phosphorylated STING CTT; phosphorylated GST‐STING protein; source: phosphorylated in vitro by GST-tagged human TBK1, used directly; not shown: GST, N-terminal, kept)", "note": "[GST‐tagged human STING CTT (residue number: 335–379), phosphorylated]", "values": [{"measurement": "binding result", "value": "binds"}]}
